Key:
[1] = target: Recombinant human STAT1α (OriGene Technologies, Inc.) (UniProt P42224)
[2] = target: T1, Recombinant human STAT1α (OriGene Technologies, Inc.), P42224
T1 chain: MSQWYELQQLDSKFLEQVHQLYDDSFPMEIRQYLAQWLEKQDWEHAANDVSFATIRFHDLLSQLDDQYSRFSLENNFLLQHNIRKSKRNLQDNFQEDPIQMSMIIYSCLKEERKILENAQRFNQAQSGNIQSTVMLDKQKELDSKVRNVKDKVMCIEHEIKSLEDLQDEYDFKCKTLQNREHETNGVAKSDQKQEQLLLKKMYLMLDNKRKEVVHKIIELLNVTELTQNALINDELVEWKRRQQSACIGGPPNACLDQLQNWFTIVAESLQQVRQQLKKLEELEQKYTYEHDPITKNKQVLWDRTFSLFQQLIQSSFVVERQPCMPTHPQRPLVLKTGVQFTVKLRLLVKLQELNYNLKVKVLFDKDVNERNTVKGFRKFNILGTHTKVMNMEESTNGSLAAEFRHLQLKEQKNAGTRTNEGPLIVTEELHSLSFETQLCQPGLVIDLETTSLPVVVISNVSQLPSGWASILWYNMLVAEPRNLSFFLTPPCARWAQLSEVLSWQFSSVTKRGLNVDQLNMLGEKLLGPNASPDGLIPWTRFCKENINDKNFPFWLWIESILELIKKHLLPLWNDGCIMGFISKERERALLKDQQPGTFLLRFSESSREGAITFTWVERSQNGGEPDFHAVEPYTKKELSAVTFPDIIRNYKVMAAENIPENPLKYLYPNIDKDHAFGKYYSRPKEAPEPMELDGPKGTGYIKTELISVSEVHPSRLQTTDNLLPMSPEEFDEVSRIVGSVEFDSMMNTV

Recombinant human PARP9 (BPS Bioscience Inc.)
ADP-ribosylation (protein ribosylation assay) [1]: PARP9 did not ADP-ribosylate STAT1α

B1: Recombinant human PARP14 (BPS Bioscience Inc.) (protein)
chain: KEYQELNELQKKLNINISLDHKRPLIKVLGISRDVMQARDEIEAMIKRVRLAKEQESRADCISEFIEWQYNDNNTSHCFNKMTNLKLEDARREKKKTVDVKINHRHYTVNLNTYTATDTKGHSLSVQRLTKSKVDIPAHWSDMKQQNFCVVELLPSDPEYNTVASKFNQTCSHFRIEKIERIQNPDLWNSYQAKKKTMDAKNGQTMNEKQLFHGTDAGSVPHVNRNGFNRSYAGKNAVAYGKGTYFAVNANYSANDTYSRPDANGRKHVYYVRVLTGIYTHGNHSLIVPPSKNPQNPTDLYDTVTDNVHHPSLFVAFYDYQAYPEYLITFRK
ADP-ribosylation (protein ribosylation assay, Western blot with Streptavidin-HRP) [2]: Recombinant PARP14 protein induced ADP-ribosylation of PARP14 itself, PARP9, and STAT1α | mono-ADP-ribosylation sites by LC-MS/MS [2]: Glu657 and Glu705 of STAT1α were mono-ADP-ribosylated by PARP14

From patent US20160289685
